Where no end group is shown, it is not given here.
Experiments:
[1] = molecular target: T1, Soluble Sortilin (sSortilin), luminal domain of human Sortilin fused C-terminally to His6 (human, UniProt Q99523 78-755); assay: SPR, wt sSortilin immobilised
T1 construct: Expressed in CHO-K1 cells; The propeptide is removed in the mature receptor; also called wt sSortilin; wtSortilin
T1 sequence: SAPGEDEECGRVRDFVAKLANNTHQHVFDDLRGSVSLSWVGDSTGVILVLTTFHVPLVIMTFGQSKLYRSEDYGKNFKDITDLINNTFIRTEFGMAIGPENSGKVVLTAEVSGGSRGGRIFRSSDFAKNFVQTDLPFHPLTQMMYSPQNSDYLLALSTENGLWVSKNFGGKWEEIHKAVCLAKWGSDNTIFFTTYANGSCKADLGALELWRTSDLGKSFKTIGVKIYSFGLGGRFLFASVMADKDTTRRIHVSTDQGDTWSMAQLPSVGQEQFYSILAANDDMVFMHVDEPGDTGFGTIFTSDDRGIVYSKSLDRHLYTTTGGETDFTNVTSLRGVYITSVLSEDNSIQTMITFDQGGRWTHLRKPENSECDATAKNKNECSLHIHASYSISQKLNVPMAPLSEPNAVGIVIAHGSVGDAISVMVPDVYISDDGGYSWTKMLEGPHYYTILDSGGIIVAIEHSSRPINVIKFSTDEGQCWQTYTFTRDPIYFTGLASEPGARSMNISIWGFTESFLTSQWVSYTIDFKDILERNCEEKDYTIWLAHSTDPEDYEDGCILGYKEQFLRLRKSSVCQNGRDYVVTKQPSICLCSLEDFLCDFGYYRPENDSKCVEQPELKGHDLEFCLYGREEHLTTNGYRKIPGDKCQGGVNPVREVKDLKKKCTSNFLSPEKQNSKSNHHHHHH
Experimental: (§1) The receptors were immobilized at similar concentrations (0.06 pM/mm²) and binding was analyzed by SPR.
(§2) Surface plasmon resonance (SPR) measurements were performed on a BIAcore 2000 instrument (Biacore Sweden) equipped with CM5 sensor chips maintained at 20° C. A continuous flow of HBS buffer (10 mM HEPES pH 7.4, 3.4 mM EDTA, 150 mM NaCl, 0.005% surfactant P20) passing over the sensor surface was maintained at 5 μl/min. The carboxylated dextran matrix of the sensor chip flow cells 1-3 was activated by the injection of a solution containing 0.2 M N-ethyl-N-(3 dimethylamino-propyl)carbodiimide and 0.05MN-hydroxysuccimide in water. A sortilin solution (320 μl, 5 μg/ml in 10 mM sodium acetate pH 4.0) was then injected over flow cells 1 and 2 at a flow rate of 15 μl/min. Remaining binding sites in all three flow cells were blocked by injection (5 μl/min) of 70 μl of 1 M ethanolamine pH 8.5. […] Screening of the samples was performed by injecting aliquots of 50 μl, at concentrations of 0.1-8 μM, through all flow cells with a flow rate of 5 μl/min. Unless otherwise stated, the samples were dissolved in 10 mM HEPES pH 7.4, 150 mM NaCl, 1.5 mM CaCl2, 1 mM EGTA, 0.005% surfactant P20. Sample buffer was also used as running buffer. […]

sSortilin S316E mutant = molecular target: T2, sSortilin S316E mutant (human, UniProt Q99523 78-755); assay: SPR, mutant sSortilin immobilised
T2 sequence: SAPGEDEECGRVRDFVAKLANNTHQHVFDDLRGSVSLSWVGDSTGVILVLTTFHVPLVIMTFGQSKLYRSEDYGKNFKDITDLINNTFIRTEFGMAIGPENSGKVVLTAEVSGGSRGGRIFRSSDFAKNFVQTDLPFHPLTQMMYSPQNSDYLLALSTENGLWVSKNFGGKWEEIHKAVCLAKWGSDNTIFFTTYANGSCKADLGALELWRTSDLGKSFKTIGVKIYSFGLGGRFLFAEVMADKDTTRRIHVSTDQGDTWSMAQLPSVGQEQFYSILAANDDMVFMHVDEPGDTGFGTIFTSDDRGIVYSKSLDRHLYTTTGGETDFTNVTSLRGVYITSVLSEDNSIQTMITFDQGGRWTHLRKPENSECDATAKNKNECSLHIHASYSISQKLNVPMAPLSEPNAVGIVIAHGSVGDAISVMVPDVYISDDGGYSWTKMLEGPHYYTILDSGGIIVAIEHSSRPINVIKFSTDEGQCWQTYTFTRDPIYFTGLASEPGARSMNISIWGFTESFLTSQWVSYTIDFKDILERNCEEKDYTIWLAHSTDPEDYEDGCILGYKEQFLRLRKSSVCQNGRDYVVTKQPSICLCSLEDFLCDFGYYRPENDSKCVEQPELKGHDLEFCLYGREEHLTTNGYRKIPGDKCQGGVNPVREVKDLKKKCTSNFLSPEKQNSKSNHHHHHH
Experimental: as §1, §2

[2] = molecular target: T1, Soluble Sortilin (sSortilin), luminal …; assay: SPR (BIAcore 3000), sSortilin immobilised on CM5 chip
Experimental: All measurements were performed on a BIAcore 3000 instrument (Biacore Sweden) maintained at 20° C. A continuous flow of buffer F (10 mM HEPES pH=7.4, 150 mM (NH₄)₂SO₄, 1.5 mM CaCl₂, 1.5 mM EGTA and 0.005% Tween-20) was passed over the CM5 chip sensor surface at 5 μl/min.

B1: Mature BDNF (ligand)
chain: HSDPARRGELSVCDSISEWVTAADKKTAVDMSGGTVTVLEKVPVSKGQLKQYFYETKCNPMGYTKEGCRGIDKRHWNSQCRTTQSYVRALTMDSKKRIGWRFIRIDTSCVCTLTIKRGR
binding result [1]: binds
binding result (sSortilin S316E mutant): binds

B2: GST-tagged Sortilin propeptide (other)
chain: QDRLDAPPPPAAPLPRWSGPIGVSWGLRAAAAGGAFPRGGRWRR
modifications: also: GST tag, order and linker not given here
notes: also called GST-Sort-pro; (GST)Sort-pro; not shown: glutathione S-transferase (GST) tag
binding result (sSortilin S316E mutant): no binding

B3: Propeptide of Nerve Growth Factor (NGFpro), E. coli-expressed, His6 tag removed by TEV (ligand)
chain: EPHSESNVPAGHTIPQVHWTKLQHSLDTALRRARSAPAAAIAARVAGQTRNITVDPRLFKKRRLRSPRVLFSTQPPREAADTQDLDFEVGGAAPFNRTHRSKR
notes: also called pro-domain of Nerve Growth Factor; NGF prodomain
Kd [2]: ~10 nM
